Test results: patent US20200222444

Biological target: Flag-Mettl8 (Flag-tagged human Mettl8, wild type) (UniProt Q9H825)
Sequence (Q9H825 other isoform, or with tags, fused parts or gaps): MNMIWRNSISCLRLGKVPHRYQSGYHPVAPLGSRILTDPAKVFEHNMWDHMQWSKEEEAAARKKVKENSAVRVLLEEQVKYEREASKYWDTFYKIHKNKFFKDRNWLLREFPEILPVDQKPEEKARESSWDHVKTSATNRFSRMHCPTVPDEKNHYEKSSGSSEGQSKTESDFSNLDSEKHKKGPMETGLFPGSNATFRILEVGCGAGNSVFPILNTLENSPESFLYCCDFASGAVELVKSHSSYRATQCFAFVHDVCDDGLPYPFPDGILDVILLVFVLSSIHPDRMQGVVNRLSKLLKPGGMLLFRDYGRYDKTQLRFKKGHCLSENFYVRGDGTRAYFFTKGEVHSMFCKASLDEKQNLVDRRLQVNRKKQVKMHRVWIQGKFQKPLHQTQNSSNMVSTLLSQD

In the case of Endogenous ATM, the “pS/TQ phosphorylation after 10 Gy irradiation (Flag IP, immunoblot)” value is reported as “pS/TQ phosphorylation was detected on wild type Mettl8 upon irradiation”.
